According to paper PMC9482650, “Quantitative fragmentomics allow affinity mapping of interactomes” (Nature Communications, 2022):

Key:
Test in all cases: holdup assay
Design in all cases: key: below the threshold = too weak to quantify, mostly under pKd 3.1 to 4
[1] = biological target: SCRIB_2, Q14160
[2] = biological target: T1, DLG3_2, Q92796
T1 sequence (Q92796 221-321, limits assumed, looked up): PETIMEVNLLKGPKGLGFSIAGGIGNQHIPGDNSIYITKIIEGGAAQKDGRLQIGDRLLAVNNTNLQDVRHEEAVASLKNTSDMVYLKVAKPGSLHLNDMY

[3] = biological target: FRMPD3, Q5JV73
Sequence of FRMPD3, Q5JV73 (Q5JV73 12-100): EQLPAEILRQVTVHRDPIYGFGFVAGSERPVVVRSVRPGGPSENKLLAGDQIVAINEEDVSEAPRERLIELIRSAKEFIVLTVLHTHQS

[4] = biological target: T2, GRIP1_5, Q9Y3R0
T2 sequence (Q9Y3R0 568-668, limits assumed, looked up): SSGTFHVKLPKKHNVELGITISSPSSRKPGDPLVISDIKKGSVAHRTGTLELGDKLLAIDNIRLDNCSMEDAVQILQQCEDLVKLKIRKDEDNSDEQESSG

[5] = biological target: T3, DVL3, Q92997
T3 sequence (Q92997 244-331, limits assumed, looked up): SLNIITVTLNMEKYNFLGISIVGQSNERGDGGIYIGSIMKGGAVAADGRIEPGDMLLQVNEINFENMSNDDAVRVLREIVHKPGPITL

[6] = biological target: T4, SNTG2, Q9NY99
T4 sequence (Q9NY99 68-166, limits assumed, looked up): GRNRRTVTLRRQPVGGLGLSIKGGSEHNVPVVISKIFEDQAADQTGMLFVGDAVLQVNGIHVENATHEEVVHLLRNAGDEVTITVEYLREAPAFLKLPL

[7] = biological target: PARD3_3, Q8TEW0
Sequence of PARD3_3, Q8TEW0 (Q8TEW0 582-685): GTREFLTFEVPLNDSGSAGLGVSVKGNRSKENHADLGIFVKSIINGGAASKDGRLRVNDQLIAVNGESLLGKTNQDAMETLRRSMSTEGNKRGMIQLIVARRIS

[8] = biological target: T5, PDZRN3_1, Q9UPQ7
T5 sequence (Q9UPQ7 244-349, limits assumed, looked up): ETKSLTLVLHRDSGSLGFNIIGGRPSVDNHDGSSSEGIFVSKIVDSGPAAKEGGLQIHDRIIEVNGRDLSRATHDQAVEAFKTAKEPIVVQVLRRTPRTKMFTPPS

[9] = biological target: T6, APBA1_1, Q02410
T6 sequence (Q02410 651-752, limits assumed, looked up): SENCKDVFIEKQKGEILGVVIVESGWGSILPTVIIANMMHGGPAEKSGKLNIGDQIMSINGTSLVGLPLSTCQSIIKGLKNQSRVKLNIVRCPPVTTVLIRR

[10] = biological target: T7, TX1BP3, O14907
T7 sequence (O14907 10-122, limits assumed, looked up): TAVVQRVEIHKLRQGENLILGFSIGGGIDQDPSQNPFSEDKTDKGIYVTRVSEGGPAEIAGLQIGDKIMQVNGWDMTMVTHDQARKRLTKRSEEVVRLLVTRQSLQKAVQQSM

[11] = biological target: LNX1_3, Q8TBB1
Sequence of LNX1_3, Q8TBB1 (Q8TBB1 500-596): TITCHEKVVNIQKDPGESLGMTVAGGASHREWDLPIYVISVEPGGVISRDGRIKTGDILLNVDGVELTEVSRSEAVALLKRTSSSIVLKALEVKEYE

[12] = biological target: GRIP2_4, Q9C0E4
Sequence of GRIP2_4, Q9C0E4 (Q9C0E4 446-548): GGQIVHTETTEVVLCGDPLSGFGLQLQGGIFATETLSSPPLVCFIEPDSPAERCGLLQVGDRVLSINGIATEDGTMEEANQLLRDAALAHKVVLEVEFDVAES

[13] = biological target: T8, LIN7B, Q9HAP6
T8 sequence (Q9HAP6 88-185, limits assumed, looked up): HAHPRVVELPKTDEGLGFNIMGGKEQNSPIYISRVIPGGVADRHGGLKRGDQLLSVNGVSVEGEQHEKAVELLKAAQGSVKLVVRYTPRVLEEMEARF

[14] = biological target: GRASP, Q7Z6J2
Sequence of GRASP, Q7Z6J2 (Q7Z6J2 96-193): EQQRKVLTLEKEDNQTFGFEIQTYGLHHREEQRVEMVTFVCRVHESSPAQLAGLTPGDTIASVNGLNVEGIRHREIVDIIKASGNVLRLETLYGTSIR

[15] = biological target: LNX1_1, Q8TBB1
Sequence of LNX1_1, Q8TBB1 (Q8TBB1 261-371): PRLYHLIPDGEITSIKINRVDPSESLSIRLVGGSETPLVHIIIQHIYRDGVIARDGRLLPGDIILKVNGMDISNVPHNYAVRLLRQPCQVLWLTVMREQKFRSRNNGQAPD

[16] = biological target: T9, RAPGEF6, Q8TEU7
T9 sequence (Q8TEU7 525-625, limits assumed, looked up): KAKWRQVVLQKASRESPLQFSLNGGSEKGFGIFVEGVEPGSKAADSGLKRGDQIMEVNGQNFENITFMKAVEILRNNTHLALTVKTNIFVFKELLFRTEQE

[17] = biological target: T10, APBA1_2, Q02410
T10 sequence (Q02410 742-832, limits assumed, looked up): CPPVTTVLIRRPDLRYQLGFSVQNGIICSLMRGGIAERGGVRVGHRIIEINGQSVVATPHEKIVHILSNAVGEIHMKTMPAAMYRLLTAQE

[18] = biological target: T11, ARHGEF11, O15085
T11 sequence (O15085 42-136, limits assumed, looked up): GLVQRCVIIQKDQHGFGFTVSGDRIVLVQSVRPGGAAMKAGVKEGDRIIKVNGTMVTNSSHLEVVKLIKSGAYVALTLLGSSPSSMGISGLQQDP

[19] = biological target: Inadl_4, Q8NI35
Sequence of Inadl_4, Q8NI35 (Q8NI35 547-651): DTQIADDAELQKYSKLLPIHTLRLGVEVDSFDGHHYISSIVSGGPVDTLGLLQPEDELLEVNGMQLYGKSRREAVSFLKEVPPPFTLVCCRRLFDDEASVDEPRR

[20] = biological target: GRIP2_5, Q9C0E4
Sequence of GRIP2_5, Q9C0E4 (Q9C0E4 544-642): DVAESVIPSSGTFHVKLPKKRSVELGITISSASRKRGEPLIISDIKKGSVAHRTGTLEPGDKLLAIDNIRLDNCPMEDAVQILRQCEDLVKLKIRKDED

[21] = biological target: T12, PARD3B_1, Q8TEW8
T12 sequence (Q8TEW8 196-299, limits assumed, looked up): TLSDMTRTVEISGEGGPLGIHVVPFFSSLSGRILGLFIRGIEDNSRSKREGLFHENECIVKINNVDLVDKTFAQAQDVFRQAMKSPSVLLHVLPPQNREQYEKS

[22] = biological target: T13, GRIP1_3, Q9Y3R0
T13 sequence (Q9Y3R0 247-346, limits assumed, looked up): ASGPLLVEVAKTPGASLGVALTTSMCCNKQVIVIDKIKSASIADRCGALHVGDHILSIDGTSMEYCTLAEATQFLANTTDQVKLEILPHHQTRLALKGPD

[23] = biological target: T14, PDZD7_3, Q9H5P4
T14 sequence (Q9H5P4 857-944, limits assumed, looked up): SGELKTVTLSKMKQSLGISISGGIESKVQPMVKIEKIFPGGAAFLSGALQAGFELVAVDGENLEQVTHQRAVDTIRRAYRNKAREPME

[24] = plain residues with an end cap or a label only (N-terminal biotin on a linker: ado-ado)
[25] = plain residues with an end cap or a label only (N-terminal biotin on a linker: ttds)

Sequence of SCRIB_2, Q14160 (Q14160 857-960): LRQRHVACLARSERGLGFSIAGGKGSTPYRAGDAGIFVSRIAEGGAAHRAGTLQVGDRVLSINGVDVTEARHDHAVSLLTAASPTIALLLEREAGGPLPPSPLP

## IGHEDLETAV [DGKI, O75912]
[1]; [24]
  pKd: 4.83
[2]; [24]
  pKd: 4.8
[3]; [24]
  pKd: below the threshold
[4]; [24]
  pKd: below the threshold
[5]; [24]
  pKd: below the threshold
[6]; [24]
  pKd: 4.8
[7]; [24]
  pKd: 3.64
[8]; [24]
  pKd: 4.75
[9]; [24]
  pKd: below the threshold
[10]; [24]
  pKd: 4.3
[11]; [24]
  pKd: below the threshold
[12]; [24]
  pKd: below the threshold
[13]; [24]
  pKd: 4.11
[14]; [24]
  pKd: 3.57
[15]; [24]
  pKd: 3.58
[16]; [24]
  pKd: below the threshold
[17]; [24]
  pKd: 4.03
[18]; [24]
  pKd: 4.55
[19]; [24]
  pKd: below the threshold
[20]; [24]
  pKd: below the threshold
[21]; [24]
  pKd: below the threshold
[22]; [24]
  pKd: below the threshold
[23]; [24]
  pKd: 4.59

## GARVSKETPL [MAPK12, P53778]
[1]; [25]
  pKd: 3.65
[2]; [25]
  pKd: 4.28
[3]; [25]
  pKd: below the threshold
[4]; [25]
  pKd: below the threshold
[5]; [25]
  pKd: below the threshold
[6]; [25]
  pKd: 4.18
[7]; [25]
  pKd: below the threshold
[8]; [25]
  pKd: 4.84
[9]; [25]
  pKd: below the threshold
[10]; [25]
  pKd: 4.26
[11]; [25]
  pKd: below the threshold
[12]; [25]
  pKd: below the threshold
[13]; [25]
  pKd: 3.86
[14]; [25]
  pKd: 3.66
[15]; [25]
  pKd: below the threshold
[16]; [25]
  pKd: below the threshold
[17]; [25]
  pKd: 3.74
[18]; [25]
  pKd: 3.48
[19]; [25]
  pKd: below the threshold
[20]; [25]
  pKd: below the threshold
[21]; [25]
  pKd: below the threshold
[22]; [25]
  pKd: below the threshold
[23]; [25]
  pKd: 3.86

## PDSYHRRDFW [U2AF2, P26368]
[1]; [24]
  pKd: below the threshold
[2]; [24]
  pKd: below the threshold
[3]; [24]
  pKd: below the threshold
[4]; [24]
  pKd: below the threshold
[5]; [24]
  pKd: below the threshold
[6]; [24]
  pKd: 3.72
[7]; [24]
  pKd: below the threshold
[8]; [24]
  pKd: below the threshold
[9]; [24]
  pKd: below the threshold
[10]; [24]
  pKd: below the threshold
[11]; [24]
  pKd: below the threshold
[12]; [24]
  pKd: below the threshold
[13]; [24]
  pKd: below the threshold
[14]; [24]
  pKd: below the threshold
[15]; [24]
  pKd: below the threshold
[16]; [24]
  pKd: below the threshold
[17]; [24]
  pKd: below the threshold
[18]; [24]
  pKd: 3.6
[19]; [24]
  pKd: below the threshold
[20]; [24]
  pKd: below the threshold
[21]; [24]
  pKd: 4.1
[22]; [24]
  pKd: below the threshold
[23]; [24]
  pKd: below the threshold
